B1: mRNA-splicing (parent)
chain: AGUUGCUGCUGGGAGCUCCAGCACAGUGAAAUGGACAGAAGGGCAGAGCAA

Variants of: B1
Experiment: exon inclusion enrichment index; higher = more inclusion; WT1 exon 5 minigene, HEK293

In order of rising “exon inclusion enrichment index” value:
1. G5A C6G U7G C9A A40U G41U  0.000481
2. G5A C6G U7G C9A G13U A14U  0.000524
3. G5A C6G U7G C9A A30G A31U  0.000963
4. G5A C6G U7G C9A A39C  0.00101
5. U3C G5A C6G U7G C9A  0.00112
6. G5A C6U U7A G8U C9A C18A C19G  0.00128
7. G5A C6G U7G C9A G43U C44A  0.00143
8. G5A C6G U7G C9A G12A G13A  0.00149
9. G5A C6G U7G C9A G46A A47G  0.00174
10. G5A C6G U7G C9A G33C  0.00196
11. G5A C6U U7A G8U C9A G38C A39U  0.0021
12. G5A C6G U7G C9A G38C A39G  0.00244
13. G5U G8U C9U A23U C24U  0.00337
14. G5A C6G U7G C9A A14G G15A  0.00342
15. G5C C6A U7C G8A U10A G34C A35C  0.0037
16. G5A C6G U7G C9A A31G U32G  0.0039
17. G5A C6G U7G C9A G26U U27G  0.00474
18. G5C C6A U7C G8A U10A G38C A39U  0.00505
19. G5A C6G U7G C9A A35G C36G  0.00533
20. G5A C6G U7G C9U U10C  0.00564
21. G5A C6G U7G C9A G12A G13C  0.0057
22. G5A C6U U7A G8U C9A A14U G15U  0.00593
23. G5A C6G U7G C9A G41A G42C  0.0072
24. G5A C6G U7G C9A A31G  0.00766
25. G5A U7C G8A U10C A35U C36A  0.00832
26. G28U A29U  0.00946
27. G5A C6U U7A G8U C9A G11A G12U  0.01
28. U4A C6A U7C G8A U10A  0.0102
29. U3C  0.011
30. G5A C6G U7G C9A G28C A29G  0.0115
31. G5A C6U U7A G8U C9A U17A C18U  0.0116
32. G5A C6U U7A G8U C9A G33A G34U  0.0125
33. U3G U4G G5C C6A U7C G8A U10A  0.0147
34. G5U G8U C9U G34A A35U  0.0163
35. G5U G8U C9U G11C G12U  0.0163
36. G5A C6G U7G C9A C24U A25C  0.0183
37. G5U G8U C9U G38U  0.0205
38. G5C C6A U7C G8A U10A C22G A23U  0.0222
39. G5C C6A U7C G8A U10A G15A C16G  0.0227
40. G5C C6A U7C G8A U10A C19A  0.0348
41. G5C C6U G8C C9U U10C G12C G13U  0.036
42. G5A C6U G8U C9A  0.038
43. U3G U4G C6A U7A C9A U10A  0.0489
44. U32A G33A  0.0558
45. G5U G8U C9U A14G G15C  0.0571
46. G5A C6U U7A G8U C9A A30U A31G  0.0609
47. U3G U4A G5C C6A U7C G8A U10A  0.0657
48. G5A C6U U7A G8U C9A C19G  0.0674
49. G5A C6U U7A G8U C9A C24A A25U  0.0699
50. A35G C36A  0.0734
51. G5C C6A U7C G8A U10A A30U A31U  0.0758
52. G5U G8U C9U G41A  0.0762
53. G5A C6U U7A G8U C9A A47C G48U  0.0767
54. G2C U3A G5C C6A U7C G8A U10A  0.0802
55. G5A C6U U7A G8U C9A A39C A40G  0.0817
56. U17C  0.0839
57. A30U A31U  0.087
58. G5U G8U C9U G38U A39C  0.088
59. G5A C6U U7A G8U C9A G43U  0.0904
60. C6A U7A C9A U10A C36G A37G  0.0922
61. G5C C6A U7C G8A U10A U17A  0.106
62. G5C C6U G8U C9U  0.106
63. G5C C6A U7C G8A U10A C44G A45U  0.109
64. C6A U7A C9A U10A G34U A35G  0.134
65. G5C C6A U7C G8A U10A A31G  0.141
66. G5C C6A U7C G8A U10A G13C A14C  0.145
67. C6A U7A C9A U10A U32G G33U  0.178
68. C6A U7A C9A U10A G34C  0.179
69. U27A G28A  0.181
70. G5C C6U G8A C9G U10C  0.184
71. G2U G5A C6U U7A G8U C9A  0.188
72. C6U U7G C9A U10A  0.189
73. G5U G8U C9A  0.194
74. G5C C6A U7C G8A U10A G48C  0.213
75. C6A U7A C9A U10A G33U G34C  0.221
76. G5C C6A U7C G8A U10A A37G  0.237
77. G5A C6U U7A G8U C9A A23C C24G  0.241
78. G5U G8U C9U A29G  0.246
79. G5C C6U G8C C9U U10C C22G A23U  0.248
80. C6A U7A C9A U10A U32C G33A  0.27
81. A29G  0.272
82. G5U G8U C9U A47C  0.283
83. G5C C6A U7C G8A U10A A31U U32C  0.293
84. C6A U7A C9A U10A A29C A30U  0.34
85. U4C  0.365
86. G5A C6A U7A C9A  0.386
87. G5A C6U U7A G8U C9A G13A A14C  0.394
88. G5A C6U U7A G8U C9A G43C C44A  0.403
89. C44A A45U  0.469
90. G5A C6U U7A G8U C9A G43A C44G  0.476
91. G5C C6A U7C G8A U10A G41C G42U  0.481
92. G5C C6U G8C C9U U10C G34U A35G  0.537
93. G5C C6A U7C G8A C9G U10A  0.545
94. G5U G8U C9U C44A A45C  0.576
95. G5U U7A G8C C9U  0.582
96. G5C C6U G8C C9U U10C A30G A31U  0.63
97. C6G U7A C9A U10C  0.641
98. A23C  0.646
99. G5C C6U U7A G8U C9U U10C  0.663
100. G5C C6U G8U C9G U10C  0.68
101. G5U G8C C9A  0.689
102. G12U G13C  0.721
103. G2U U3G G5U G8U C9U  0.724
104. G5C C6U G8C C9U U10C G34A A35G  0.76
105. G5C C6U G8C C9U U10C A23C C24U  0.867
106. G5A U7C G8A C9G  0.872
107. G5C C6U G8C C9U U10C C19A  0.881
108. U7C G8C  1.02
109. U3G U4C G5C C6U G8C C9U U10C  1.03
110. C6A U7A C9A U10A G12U G13C  1.06
111. G5C C6U G8C C9U U10C A29C A30U  1.18
112. G5C C6G U7C U10C G38U  1.34
113. C6A U7A C9A U10A U27C G28C  1.36
114. C22G A23C  1.36
115. G5C C6U G8C C9U U10C G34C A35G  1.38
116. G5A U7C G8A U10C C36U A37U  1.38
117. G5C C6U G8C C9U U10C G28U A29C  1.48
118. G5C C6G U7C U10C A37U G38U  1.52
119. C6A U7C C9A U10C A30G A31U  1.6
120. U3C U4A G5C C6U G8C C9U U10C  1.61
121. G43C C44G  1.62
122. G5C C6A U7C G8A U10G G11U  1.69
123. G5C C6A U7C G8A U10G G11A  1.71
124. G5A U7C G8A U10C U32C G33U  1.75
125. G5A U7C G8A U10C A25U G26U  1.75
126. G5C C6U G8C C9U U10C G28U A29G  1.84
127. G5A U7C G8A U10C U17C C18U  1.85
128. G5C C6U G8C C9U U10C U17G C18G  1.96
129. G5C C6A U7C G8A U10G G11C  2
130. G5A U7C G8A U10C U17A C18G  2
131. G5C C6G U7C U10C A20C G21C  2.03
132. U3G U4C G5C C6G U7C U10C  2.03
133. C6A U7C C9A U10C G11C G12A  2.17
134. A23C C24G  2.29
135. G5C C6G U7C U10C A45C G46C  2.31
136. C6A U7C C9A U10C G33C G34A  2.31
137. C6A U7A C9A U10A G26C U27C  2.32
138. C6A U7C C9A U10C C36U A37C  2.39
139. G5A C6A U7C U10C  2.4
140. C6A U7C C9A U10C A47G G48A  2.43
141. C6A U7C C9A U10C A37U  2.49
142. G5C C6G U7C U10C C19A  2.65
143. G5C C6U G8C C9U U10C A25C G26U  2.7
144. G5A U7C G8A U10C A25C G26C  2.75
145. G5C C6G U7C U10C U17A C18A  2.9
146. C22A A23C  2.97
147. U10G G11C  2.98
148. G5C C6G U7C U10C A29C A30U  3.02
149. G5C C6G U7C U10C C19U A20C  3.09
150. G5C C6G U7C U10C C19G A20U  3.16
151. G5C C6U G8C C9U U10C C24G A25C  3.27
152. G5C C6U G8C C9U U10C A23G C24A  3.38
153. G2A G5A U7C G8A U10C  3.39
154. G2C U3C G5C C6G U7C U10C  3.45
155. G5A U7C G8A U10C G26C U27G  3.53
156. G5C C6U G8C C9U U10C G26A U27C  3.55
157. C6A U7C C9A U10C G15U  3.57
158. G5C C6G U7C U10C C36A A37C  3.59
159. C6A U7C C9A U10C U27A  3.6
160. G5C C6G U7C U10C A39C A40C  3.63
161. C6A U7C C9A U10C C44U A45C  3.64
162. G5A U7C G8A U10C C44A  3.82
163. G5C C6G U7C U10C G48C  3.91
164. G2U U3G G5C C6U G8C C9U U10C  3.99
165. G5A U7C G8A U10C A31G U32A  4.37
166. G5C C6G U7C U10C C44G A45C  5.06
167. G2U U3A G5C C6G U7C U10C  5.21

— the RNAGym collection of RNA variant scans (doi:10.1101/gr.219683.116)
